Assay results from publication PMC5737841.
Where a chain is given by its changes, count along the chain named.

Key:
Assay in all cases: UV crosslinking
SisCsx1-M2 = molecular target: T1, SisCsx1-M2 (Sulfolobus islandicus Rey15A, UniProt F0NE21 1-454, G95L;A97L;A99L)
T1 sequence: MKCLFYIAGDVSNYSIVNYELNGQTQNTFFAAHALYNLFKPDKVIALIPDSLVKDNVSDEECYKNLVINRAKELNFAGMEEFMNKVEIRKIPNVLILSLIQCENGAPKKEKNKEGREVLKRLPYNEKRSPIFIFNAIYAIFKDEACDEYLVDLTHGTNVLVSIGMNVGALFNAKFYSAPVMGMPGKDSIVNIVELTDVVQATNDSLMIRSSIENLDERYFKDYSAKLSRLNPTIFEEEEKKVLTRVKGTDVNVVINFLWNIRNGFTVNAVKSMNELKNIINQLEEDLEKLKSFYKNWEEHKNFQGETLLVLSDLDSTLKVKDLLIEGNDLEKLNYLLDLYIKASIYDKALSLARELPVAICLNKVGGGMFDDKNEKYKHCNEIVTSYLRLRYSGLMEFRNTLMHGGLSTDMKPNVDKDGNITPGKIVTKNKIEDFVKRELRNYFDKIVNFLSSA

SisCsx1-M3 = molecular target: T2, SisCsx1-M3 (Sulfolobus islandicus Rey15A, UniProt F0NE21 1-454, D50L;S51L)
T2 sequence: T1 sequence with D50L, S51L, L95G, L97A, L99A

SisCsx1-M6 = molecular target: T3, SisCsx1-M6 (Sulfolobus islandicus Rey15A, UniProt F0NE21 1-454, H155L)
T3 sequence: T1 sequence with L95G, L97A, L99A, H155L

Measured: binding result

CGCAAAAAAA (ssRNA) [S3A7]
no binding: SisCsx1-M2 | SisCsx1-M3 | SisCsx1-M6
